Patent publication US20240122985A1, “ANTIBODIES, COMBINATIONS COMPRISING ANTIBODIES, BIOMARKERS, USES & METHODS” (KYMAB LIMITED, priority 2016, published 2024)
Where “and” joins values, the source holds several entries; their conditions need not be identical. Equal entries are not always repeated.

How the values were obtained:
[1] = system: Rhesus Macaque Graft versus Host Disease (GvHD) model
Excerpt: The effectiveness of antibody 2D10 IgG4PE as a monotherapy prophylactic for the prevention of GvHD was examined in a Rhesus Macaque model of haploidentical hematopoietic stem cell transplantation (HSCT).
All transplants were between half-sibling pairs that are mismatched at one MHC haplotype (“haploidentical-HCTs”). Recipient animals had irradiation based pre-myeloablative pre-transplant conditioning using a linear accelerator. Dose rate: 7cGy/min. Dose 1020 cGy given in 4 fractions. The leukapheresis donor animal underwent GCSF mobilisation and underwent leukapheresis using a Spectra Optia apheresis machine.
2D10 IgG4PE was dosed at 10 mg/kg i.v. according to a planned dosing schedule to take place on Day −2, Day+5, Day+12, Day+19, Day+26, Day+33, Day+40, Day+47 post-transplant.
Samples were taken during the course of the study to monitor donor chimerism (Table 4) and white blood cell counts. The primary end point was based on survival, with a survival to 15 days deemed to be a sign of successful prophylactic therapy (and compared to the documented survival of 6-8 days with no prophylaxis; Miller et al. 2010, supra). Though full pathology and histology with GvHD grading scores, markers of T-cell proliferation and activation (such as Ki-67 and granzyme B) and gene array analysis are planned, they were not available for inclusion at the time of drafting.
Scoring of clinical symptoms was based on observational assessments and clinical chemistry, classified according to the criteria set out in Table 5.
A further rhesus macaque GvHD study was conducted to determine the effect of combined post-HSCT prophylaxis with 2D10 IgG4PE and rapamycin. The study was performed as described in Example 7, with dosing as follows: 2D10 IgG4PE was administered i.v. at 10 mg/kg on Day −2, Day +5, Day+12, Day+19, Day+26, Day+33, Day+40, Day+47 and Day+56 post-transplant. Rapamycin was administered at a loading dose of 0.1 mg/kg i.m. on Day −14, followed by daily i.m. maintenance doses of 0.025 mg/kg until the scheduled termination of the study at Day+100. Rapamycin dosing was adjusted to maintain serum trough levels within the range 5-15 ng/mL.
This was a cohort study in NHP designed to determine the clinical, immunologic and molecular outcomes of OX40L blockade during allogeneic HCT. Two cohorts of transplant recipients were studied: (1) Allogeneic transplants using the OX40L-blocking human IgG4-PE antibody 1D05 (described as ‘KY1005’ in this Example 11) as monotherapy for GVHD prophylaxis (abbreviated as ‘KY1005’; n=4). KY1005 was given at a dose of 10 mg/kg starting on Days −2 and then once weekly until discontinuation on Days 54 (FIG. 8E). […] (2) Allogeneic transplants using KY1005 in combination with Sirolimus (Rapamycin) ([…]) for GVHD prophylaxis (abbreviated as ‘KY1005/Siro’; n=5). KY1005 was given at a dose of 10 mg/kg starting on Days −2 and then once weekly until discontinuation on Days 54 (FIG. 8P). […] These two OX40L-blockade groups were compared to the following cohorts, aspects of which have been described previously (Furlan et al., 2015; Furlan et al., 2016; Miller et al., 2010) (1) Autologous transplants (abbreviated as ‘Auto’, n=6 for clinical and flow cytometric data and n=4 for transcriptomic analysis) (2); Allogeneic transplants with no GVHD prophylaxis (abbreviated as‘No Rx’, n=11 for clinical and flow cytometric data and n=4 for transcriptomic analysis). (3) Allogeneic transplants using Sirolimus monotherapy for GVHD prophylaxis (LC laboratories, abbreviated as ‘Siro’, n=11 for flow cytometric analysis, n=4 for transcriptomic analysis).

recombinant hOX40L = molecular target: T1, recombinant hOX40L (Homo sapiens, UniProt P23510); test: Surface plasmon resonance, apparent affinity to human OX40L; format: binding; settings: SPR, 25° C.; CNROR = Cannot resolve off-rate
T1 construct: cDNA encoding the extracellular domain of human OX40L was cloned into a pREP4 expression plasmid; isoleucine zipper (N); made in house; host or cells: FreeStyle CHO-S (transient)
T1 sequence (P23510 with tags, fused parts or gaps): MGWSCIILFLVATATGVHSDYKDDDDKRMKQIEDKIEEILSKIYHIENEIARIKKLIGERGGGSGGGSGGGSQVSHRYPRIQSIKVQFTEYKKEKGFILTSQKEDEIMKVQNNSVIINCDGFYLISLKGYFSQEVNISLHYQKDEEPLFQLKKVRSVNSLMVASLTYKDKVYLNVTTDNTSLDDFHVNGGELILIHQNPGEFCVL
Method: (§1) SPR analysis was carried out using the ProteOn™ XPR36 Array System (BioRad). Anti-mouse IgG (GE Healthcare BR-1008-38) was immobilised on a GLM biosensor surface using amine coupling, the surface was then blocked using 1 M ethanolamine. Test antibodies were captured on this surface and recombinant hOX40L (human and rhesus) were used at a single concentration of 256 nM, binding sensorgrams were double referenced using a buffer injection (i.e. 0 nM) to remove baseline drift and injection artefacts. Apparent affinities for the OX40L-antibody interaction were determined using the 1:1 model inherent to the ProteOn XPR36 analysis software. The assay was run using HBS-EP (Teknova) as running buffer and carried out at 25° C.

Rhesus monkey OX40L = test: Surface plasmon resonance, apparent affinity to rhesus OX40L; format: binding, Rhesus (Macaca mulatta); settings: SPR, 25° C.; CNROR = Cannot resolve off-rate
Sequence of Rhesus monkey OX40L (as listed by the source): as the sequence (P23510 with tags, fused parts or gaps) above, with R77Q, K95E counted along it
Method: as §1

[2] = system: peripheral blood or T-cell donor chimerism; test: Donor chimerism in rhesus HSCT recipients (microsatellite markers); format: in vivo, Rhesus macaque; settings: per animal
Method: Peripheral blood or T-cell (CD3^+/CD20−) chimerism was determined using divergent donor- and recipient-specific MHC-linked microsatellite markers, by comparing peak heights of the donor- and recipient-specific amplicons (Penedo M C et al, (2005) “Microsateliite typing of the rhesus macaque MHC region”, Imunogenetics 57:198-209).
Flow cytometrically-sorted T-cells (CD3^+/CD20−) were analysed for donor chimerism based on divergent microsatellite markers. Chimerism analysis was performed at the UC Davis veterinary genetics laboratory as previously described (Larsen et al., 2010; Kean et al., 2007).

[3] = Rhesus HSCT, 2D10 IgG4PE 10 mg/kg i.v. weekly from Day −2, one line per animal, brackets = experimental failure

## KY1005: antibody used for GVHD immunoprophylaxis in NHP, measured by antigen (OX40L) capture assay; not tied to 02D10 in this part
[1]; Example 11 (FIG. 7C)
  MST: 19.5 days
[1]; Example 11, NHP (FIG. 7C)
  GVHD-free survival: 19.5 days
[1]; Table 8, per animal, Seattle
  Survival: 16 day (2×) and 26 day and 23 day

B1: 2D10 IgG4PE: fully human anti-human OX40L monoclonal antibody, human IgG4-PE; VH Seq ID No:34, VL Seq ID No:48; 2D10-1 to -4 are stable pools (antibody, V domains shown)
VH: EVQLVESGGGLVQPGGSLRLSCAASGFTFSNYAMNWVRQAPGKGLEWVSTISGSGGATRYADSVKGRFTISRDNSRNTVYLQMNSLRVEDTAVFYCTKDRLIMATVRGPYYYGMDVWGQGTTVTVSS
VL: DIQMTQSPSSLSASVGDRVTITCRASQSISSYLNWYQQKPGKAPNLLIYAASSLQSGVPSRFSGSGSETDFTLTISSLQPEDFATYYCQQSHSVSFTFGPGTKVDIK
modifications: human IgG4-PE constant regions; 02D10 - VH Amino Acid Sequence; 02D10 - VL Amino Acid Sequence
[1]; Example 9, post-HSCT prophylaxis, Rhesus macaque (FIG. 7)
  median survival time, MST: 19 days
[1]; [3]
  Survival Duration: 22 days and 16 days (2×) and 26 days
  Survival Duration (days): (24) days
[1]; Rhesus macaque
  survival of animals after allogeneic HCT: prolonged survival
[1]; animal #4
  Gross necropsy, visceral GvHD: no overt visceral GvHD
[1]; rhesus monkey, in vivo, iv, 10 mg/kg
  adverse dosing side effects: No serious adverse dosing side effects
Recombinant hOX40L
  Apparent Affinity hOX40L (nM): CNROR
Rhesus monkey OX40L
  Apparent Affinity RhsOX40L (nM): CNROR
[2]; 2D10 IgG4PE Rhesus GvHD Study
  Peak peripheral blood donor chimerism: 88% and 99% (2×) and 100%
[2]; Day 0
  Whole Blood Chimerism (%) Day 0: 0%
[2]; Day 1
  Whole Blood Chimerism (%) Day 1: 16.6% and 5.7% and 22.9%
[2]; Day 4
  Whole Blood Chimerism (%) Day 4: 6.6%
[2]; Day 5
  Whole Blood Chimerism (%) Day 5: 91.4% and 66.3% and 31.7% and 68.2%
[2]; Day 7
  Whole Blood Chimerism (%) Day 7: 27.5%
[2]; Day 8
  Whole Blood Chimerism (%) Day 8: 98.4% and 97.4% and 66.3% and 82.9%
[2]; Day 11
  Whole Blood Chimerism (%) Day 11: 90.4%
[2]; Day 12
  Whole Blood Chimerism (%) Day 12: 98.6% and 99.5% and 82.3% and 92.1%
[2]; Day 14
  Whole Blood Chimerism (%) Day 14: 81.8%
[2]; Day 15
  Whole Blood Chimerism (%) Day 15: 99.1% and 99.4% and 88.2% and 97.5%
[2]; Day 16
  Whole Blood Chimerism (%) Day 16: 79.8%
[2]; Day 18
  Whole Blood Chimerism (%) Day 18: 19.7%
[2]; Day 20
  Whole Blood Chimerism (%) Day 20: 99.2% and 98.4%
[2]; Day 21
  Whole Blood Chimerism (%) Day 21: 0%
[2]; Day 23
  Whole Blood Chimerism (%) Day 23: 98.6% and 98.8%
[2]; Day 26
  Whole Blood Chimerism (%) Day 26: 98.7%
